Results from patent US20260209319A1 (JECHO LABORATORIES, published 2026).
Substitutions are numbered along the chain they refer to. Numbers in names are those of the source.

B1: m912-[L]-scFv^CD3 bsAb (bispecific antibody, V domains shown)
VH: QVQLQESGPGLVKPSETLSLTCTVSGGSVSSGSYYWSWIRQPPGKGLEWIGYIYYSGSTNYNPSLKSRVTISVDTSKNQFSLKLSSVTAADTAVYYCAREGKNGAFDIWGQGTMVTVSS
VL: not shown
B2: MSLN-31-[L]-scFv^CD3 bsAb (bispecific antibody, V domains shown)
VH: B1 VH with G32F, S33T, Y34D, Y35T, E100D, G101F, K102V, N103L, G104S, A105G
VL: DIQMTQSPSSLSASVGDRVTITCRASQSISSYLNWYQQKPGKAPKLLIYAASSLQSGVPSRFSGSGSGTDFTLTISSLQPEDFATYYCQQPYDASYTFGGGTKVEIK
notes: IgG-[L]-scFv format; also called MSLN-31 bsAb; not shown: IgG heavy constant region (N297G, K322A), light constant region and the huOKT3-scFv with its 3xG4S linker; copies: 2 + 2
B3: MSLN-39 IgG (antibody, V domains shown)
VH: B1 VH with G32F, S33T, Y34D, Y35T, G101D, K102A, N103L, G104T, A105G
VL: B2 VL with I29S, S30R, S31Y, L33V, P91S
notes: IgG; also called MSLN-39 antibody; MSLN-39 in IgG format
B4: MSLN-39-[L]-scFv^CD3 bsAb (bispecific antibody, V domains shown)
VH: B1 VH with G32F, S33T, Y34D, Y35T, G101D, K102A, N103L, G104T, A105G
VL: B2 VL with I29S, S30R, S31Y, L33V, P91S
B5: HP4-44-[L]-scFv^CD3 bsAb (bispecific antibody, V domains shown)
VH: B1 VH with G101D, K102V, N103L, G104S, A105G
VL: B2 VL with P91S, S95F
B6: MSLN-30-[L]-scFv^CD3 bsAb (bispecific antibody, V domains shown)
VH: B1 VH with G32R, S33D, Y34D, Y35L, E100D, G101F, K102V, N103L, G104S, A105G
VL: B2 VL

Tests used:
[1] = molecular target: T1, mesothelin on the cell surface (OVCAR3, Capan-2 cells) (UniProt Q13421 296-598); test: flow cytometry on OVCAR3 cells
[2] = molecular target: T1, mesothelin on the cell surface (OVCAR3, …); test: cell-based or functional assay
[3] = molecular target: T2, mesothelin (soluble, recombinant) (UniProt Q13421 296-580, limits assumed); test: method not stated; quoted in the T cell activation example
T2 construct: also called MSLN; soluble MSLN

CD3 on Jurkat cells = molecular target: T3, CD3 on Jurkat cells (UniProt P07766 23-207); test: flow cytometry on Jurkat cells
T3 construct: whole, on cells; Part of the TCR/CD3 complex on cells

[4] = molecular target: T2, mesothelin (soluble, recombinant); test: Octet BLI, bsAb captured on AHC biosensors, mesothelin 0-200 nM, 1:1 model
Text: The Fe-epitope anti-human capture (AHC) biosensors from ForteBio were used for loading the testing bsAbs. […] A probe loaded with a control antibody was used as a reference sensor. […] The dissociation constants (KD) and Kₒₙ/Koff are estimated by fitting to the 1:1 binding model. The probes were regenerated for multiple rounds of measurements.

[5] = molecular target: mesothelin on the cell surface (OVCAR3, Capan-2 cells) (UniProt Q13421 296-598); test: cell-based or functional assay; remark: listed apart in the source
[6] = molecular target: T2, mesothelin (soluble, recombinant); test: SPR (Biacore 3000), antibody captured on the chip via an Fc antibody, mesothelin 0.625-10 nM [text above the curves]
Experimental: The measurement was performed by immobilizing the tested antibody and then perfusing with corresponding concentrations of mesothelin.

[7] = molecular target: T2, mesothelin (soluble, recombinant); test: SPR, Biacore 3000, antibody captured via an Fc antibody, mesothelin 0.625-10 nM
[8] = molecular target: T2, mesothelin (soluble, recombinant); test: cell-based or functional assay

Binder | EC50 [1] [µg/mL] | EC50, T cell activation assay (Jurkat NFAT-luciferase reporter) in the presence of Capan-2 cells [2] [µg/mL] | EC50, T cell activation assay (Jurkat NFAT-luciferase reporter) in the presence of OVCAR3 cells [2] [µg/mL] | Kd [3] [nM] | EC50 (CD3 on Jurkat cells) [µg/mL] | Kd [4] [nM] | koff [4] [s⁻¹] | kon [4] [M⁻¹ s⁻¹] | EC50, T cell activation assay (Jurkat NFAT-luciferase reporter) in the presence of Capan-2 cells [5] [µg/mL] | EC50, T cell activation assay (Jurkat NFAT-luciferase reporter) in the presence of OVCAR3 cells [5] [µg/mL] | koff [6] [s⁻¹] | kon [6] [M⁻¹ s⁻¹] | Kd [7] [nM] | fold increase of the IC50 in the luciferase-based cytotoxicity assay on NCI-N87 cells at 200 ng/mL of soluble MSLN [8] [fold]
B1 | 0.572 | 6.92 | 6.64 | 72 | 0.403 | – | – | – | – | – | – | – | – | –
B2 | – | – | – | – | – | 0.00118 | 3.03e-07 | 258000 | 0.0156 | 0.0116 | – | – | – | –
B3 | – | – | – | – | – | – | – | – | – | – | 8.93e-05 | 1.58e+06 | 0.0564 | –
B4 | 0.0124 | 0.0128 | 0.0082 | – | 0.893 | 0.00107 | 4.05e-07 | 379000 | – | – | – | – | – | 27
B5 | 0.0096 | 0.0105 | 0.0087 | – | 0.636 | 2.91 | 0.000809 | 278000 | – | – | – | – | – | 2.5
B6 | 0.0121 | 0.0117 | 0.0098 | – | 0.521 | 0.00171 | 2.44e-07 | 221000 | – | – | – | – | – | –
